Results on one substance are retold here after PMC3984077.

The test deals with HasSCTD, the last 78 residues of the antisigma factor HasS of Serratia marcescens (Serratia marcescens) (UniProt Q79AD3). Briefly: NMR titration; 1H-15N HSQC, one partner 15N-labelled in turn, peak intensities before and after adding the unlabelled partner; 250 µM HasSCTD with 200, 400 or 800 µM signaling domain, or 100 µM 15N signaling domain with 250 µM HasSCTD; control with 400 µM periplasmic domain; sodium phosphate pH 7, 50 mM NaCl, 0.05% Zw, 15% D2O; 20°C.

Substance “signaling domain of the TonB-dependent outer membrane transporter HasR (from UniProt Q79AD2) (domain or fragment)” returned a reduction of the overall HSQC peak intensity of 15N HasSCTD of 35%.
